Assay: yeast display, Sf9 membrane polyspecificity reagent, FACS + sequencing; frameworks hold sequencing errors
Summary of the method: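 Synthetic nanobody libraries on Saccharomyces cerevisiae BJ5465 were galactose-induced for 36–48 hours, stained 1 hour at 4 °C with 10% biotinylated, detergent-solubilized Sf9 membrane reagent and enriched on streptavidin microbeads. FACS then separated cells into low and high (top ~1%) gates by anti-HA (expression) and streptavidin (reagent binding) fluorescence. Genes were colony-PCR amplified, MiSeq 2 × 250 sequenced and CDR-length filtered. A clone's polyreactivity label is that of its gate of origin.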

Row | Sequence | polyreactivity (PSR sort gate)
1 | QVQLVESGARLVPAGGTLRLSFADYGFNFGQYAMAWYRQAPGKERELVAAISWSGGSTYYAESVKGRFTISRDNAKNTVYLQMNSLKPEDTAVYYCGEELGDYWGQGTQVTVSS | high polyreactivity
2 | QVQLVESGGGLVQAGGSLRLSCAASGRIFYPYAMGWYRQAPGIERELVAAIDKGGGSTYYADSVKGRFSISRDNAKNTVYVQMNSLKPEDTAVYYCAAGWEYPYDYWGQGTQVTVSS | low polyreactivity
3 | QVQLVESGGGLVQAGGSLRLSCAASGIIFGFYAMGWYRQAPGKERELVAAITSGGRTDYADSVKGRFTISRDNAKNTVYLQMNSLKPEDTAVYYCAAEFTYYGARWGYLGDLDYWGQGTQVTVSS | high polyreactivity
4 | QVQLVESGGGLVQAGGSLRLSCADSGSTFRRNVMGWYRQAPGKERELVASIRSGGTTNYADSVKGRFTISRDNAKNTVYLQMNSLKPEDTAVYYCAAARSRGYYRASAVVLYGYWGQGTQVTVSS | high polyreactivity
5 | QVQLVESGGGLVQAVGSLRLSCAASGRTFWANTMGWYRQAPGKERELVAAISKRGGSTYYADSVKGRFTISRDNAKNTVYLQMNSLKPEDTAVYYCNADKSGWYDYWGQGTQVTVSS | high polyreactivity
6 | QVQLVESGGGLVQAGGSLRLSCAASGSTFYLYARGWFSQAPGKVRELGAAIRTSGGSTYYADSGKGRFTISRDTAKNTVYLQMNSLKPEDTAVYSCTAAWPYNSVEYWGQGTQVTVSS | low polyreactivity
7 | QVQLVESGGGLVQAGGSLRLSCAASGRIFQFYAMGWYRQAPGKERELVAAITTGGSTKYADSVKGRFTISRDNAKNTVYLQMNSLKPEDTAVYYCAARAHYYVYRPGIRRYDYWGQGTQVTVSS | high polyreactivity
8 | QVQLVESGGGLVQAGGSLRLSCAASGIFLVYAMGWYRQAPGKERELVAAIRSDASTNYADSVKWRFTISRDNAKKTVYLQMNILKPEDSAVYYCNTAQLVSDEFDYWGQGTQVTVSS | low polyreactivity
9 | QVQLVESGGGLVQAGGSLRLSCAASGITFVLNALGWYRQAPRKERELVARISWSTGSTYYADSVKGRFTISRDNAKNTVYLQMNSLKPEDTAVYYCAVDYNVQSLYVVVEGEYWGQGTQVTVSS | low polyreactivity
10 | QVQLVESGGGLVQAGGSLRLSCAASGSIIKRNAMGWSIQAPGKERELVASISSGGTYYADSVKGRFTISRDNAKNTVYLQMNSLKPEDSAVYYCATDRGVIYRGISGYIHYDYWGQGTQVTGSS | low polyreactivity
11 | QVQLVESGGGIVQAGGSLRISCAASRRTYFFNDMGWYRQAPGKERELVAAIGWSTVTTYYADSVKGRFTISRDNAKYTVYFQMISLKPEDTAVYYCAADADGWYSPYDYWGQGSQVTVSS | high polyreactivity
12 | QVQLVESGGGLVQAGGSLRLSCAASGFTIWDYAMGWYRQAPGKERELVAAISWSGGSTYYADSVKGRFTISRDNAKNTVYLQMNSLKPEDTAVYYCNAVHYSHHGYDYWGQGTQVTVSS | low polyreactivity
13 | QVQLVESGGGLVQAGGSLRLSCAASGRTFYYNAMVWYRQAPGKERELVAAITWSGGRTFYADSVKGRFTISRDNAKNTVYLQMNSLKPEDTAVYYCNAYPVFRSYDYWGQGTQVTVSS | high polyreactivity
14 | QVQLVESGGCLVQAGGSLRLSSAASGFTFRRYTMGWYRQAPGKVRELVAAISRSGGSTFYADSVKGRFTISRDNAKNTVYLQLNSLKPEDSAVYYCNAGRTYTALNGDYWGHGTQVTVSS | high polyreactivity
15 | QVQLVESGGGLVQAGRSLRLSCAAYGYTFEFYAMGWYRQAPGKEREFVAGINSSGVTTYYADSVKGRFTIARDNAKYTVYLQMNSLKPVYSAVYYCAATDVVYTWFFLVYIPYDYWGQGTQVTVSS | low polyreactivity
16 | QVQLVESGGGLVQAGGSLRLSCAASGRTFGPYAMGWYRQAPGKEREFVAAISYSGGSTYYADSVKGRFTISRDNAKNTVYLQMNSLKPEDTAVYYCAVDIDSNSGTRDYWGQGTQVTVSS | low polyreactivity

Row | Sequence | polyreactivity (PSR sort gate)
17 | QVQLVESGGGLVQAGGSLRLSCAASGLIFRHYAMGWYRQAPGKERELVAAIDYSGGSTYYADSVKGRFTISRDNAKNSVYLQMNSLKPEDTAVYYCAADYFWLYYSEYGYWGQGTQVNVSS | low polyreactivity
18 | QVQLVESGGGLVQAGGSLRLSCAASGNTFKYYAMGWYRQAPGKERELVATISRTAGSTYYADSVKGRFTISRDNAKNTVYLQMNSLKPDDTAVYYCNKDRGHPFKYDYWGQGTQVTVSS | low polyreactivity
19 | QVQLVESGGGLVQAGGSLRLSCAASGSTFLYYAMGWYRQAPGKERELVARITTRVGRTYYADSVKGRFTISRDNAKNTVYLQMNSLKPEDTAVYYCATGGSKEMDYWGQGTQVTVSS | high polyreactivity
20 | QVQLVESGGGLVQAGGSLRLSCAASGSIFHYNSMGWDRQAPGKEWGLVASMSSGGRTYYADSVKGRFTISRDNPKNTVYLQMNSLKPDDTAVYYCAAEYYQTTYVWWTYDYYGGQGTQVTVSS | low polyreactivity
21 | QVQLVESGGGLVKAGGSLRLSCAASGSIITIYAMGWYRQAPGKERDWVATITGGGGSTYYADSVKGRFTISRDNAKNTVYFKMNSLKPEETAVYYCAADSPGWSYTSRSYDYWGQGTQVTVSS | low polyreactivity
22 | QVQLVESGGGLVQAGGSLRLSCAASGRIFKRNAMGWYRQAPGKERELVAAISSGTSTNYADSVKGRFTISRDNAKNTVYLQMNSLKPEDTAVYYCAVRPVDYRGYYYWGQGTQVTVSS | high polyreactivity
23 | QVQLVESGGGLVHAGGSLRLSCDASGIIFFIYTMGWYRQAPGKERELVAVITRGGRTNYADSVKGRFTISRDNAKNTVYLQMNSLKPEDTAVYYCAAKGSRSYYWGQGTQVNVSS | high polyreactivity
24 | QVQLVESGRGLVQAGGSLRLSCAASGSIFYYLAKGWYRQAPGKERELVAVIDFSGASTSYADSVKGRFTISRDNAKNTVYLQMNSLKPEDTAVYYCAADRFRRKVRVDYWGQGTQVTVSS | low polyreactivity
25 | QVQLVESGGGLVQAGGSLRLSCAASGSTDSNAMGWNRQAPGKEREMVAPISGTGSRTYYADSVKGRFTISRDNAKNTVYFQLNSLKTEDTAVYYCNKDVYGYSRTGPRGYDYWGQGTQVTVSS | high polyreactivity
26 | QVQLVESGVGLVQAGGSLRLSCAASGSIFKYYAMGWYRQAPGKERELVAAISSNGGRTYYADSVKGRFTISRDNAKNTDYLQMNSLKPEDTAVYYCARRYRRTGESEYDYWGQGTQVTVSS | high polyreactivity
27 | QVQLVESGGGLVQAGGSLRLSCAASGRTFVVYAMGWYGQAPGKERELVAGITTRVGSTYYADSVKGRFTISRDNAKNTVYLQMNSLKPEDTAVYYCAARGSRYVGRVRYDYWGQGTQVTVSS | high polyreactivity
28 | QVQLVESGGGLVQAGGSLRLSCAASGSIFKQNTKGWYRQAPGKERELVAAISSGGSTYYADSVKGRFTISRDNAKNTVYLQMNSLKPEDTAVYYCAKYYDWDYYLPLEGDYWGQGTQVTVSS | low polyreactivity
29 | QDQLVDSGGGLVQAGGSLRLSCAASGRIIGYNAMVWYRQGPGKERELVAAITTSGGSTYYADSVKGRFTISSDNAKNTVYLQMNSLKPVDTAVYYCARDSLQVFYPYASDDYWGQGTQVTVSS | low polyreactivity
30 | QVQLVESGGGLVQAGGSLRLSCAASGRIFGYNAMGWYRQATGNERELVAAITNGGSTNYADSVKGRFTISRDNAKNTVYLQMNSLKPEDTAVYYCAVKWYPPGHDYWGQGTQVTVSS | low polyreactivity
31 | QVQLVESGGALVQAGGSLRLSCAASGITFEVYAMGLYRQAPGKAREFVAAITGSGSRTYYADSVKGRFTISRDNAKNTVYLQMNSLKPEDTAVYYCAVKGFSTRSYREFDYWAQGTQVTVSS | low polyreactivity
32 | QVHLEESGGRLVQAGGSLRLSCSDSGRIIPRNVMGLYRQAPGKERELVAAISSRGTRTYYADSVKGRFTISRDNAKNTVFLQMNSLKPEDTAVYYCAADGPYDGYDFWGQGTQVTVSS | high polyreactivity
